Molecular target: human alpha-thrombin (Homo sapiens, UniProt P00734;P00734 328-363;364-622)
Assay: SEC mobility shift

Binder | binding result
TTTTTTGGTTGGTGTGGTTGG (structured_DNA, 5'-C6-NH2, DBCO; conjugated by azide-DBCO cycloaddition to spider silk protein eADF4(C16)) [apt15-rssp (tba15-rssp)] | binds
TTTTTTAGTCCGTGGTAGGGCAGGTTGGGGTGACT (structured_DNA, 5'-C6-NH2, DBCO; conjugated by azide-DBCO cycloaddition to spider silk protein eADF4(C16)) [apt29-rssp (tba29-rssp)] | binds
